Laboratory results reported in a protein production outcome set (Wang et al. 2014).

Assay: label from the status in PepcDB records
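Also: failed if final PepcDB status was selected cloned or expressed and not failed if soluble or beyond.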

| Sequence | protein production |
| --- | --- |
| MNVIRLKEDKFREALRLSEYAFQYKVDEDRLQQQITKMKESHEVYGIMEGENLAAKLHLIPFHIYIGKEKFKMGGVAGVATYPEYRRSGYVKELLQHSLQTMKKDGYTVSMLHPFAVSFYRKYGWELCANLLVCHMTKSDLVMKKQVNGTVKRFNKESHPEEVEKLYETFAELFSGMLVRNEKWWLQAVYDDLTLAIYYDENQTAAGYMLYKIENYKMTVEEFVPLHNEARNGLWNFICQHDSMIKDLEMTVSENEPLLYTLQEPRVKTEIKPYFMGRIVDVEQFLKQYELNWNNVQQEVILHITDSFAQWNNITVRIANHEITIIEEPIDKGIKLDINALSTILFGYRRPLELNELELISGSEEEIRAFESVVPVRKPFIYDFF | not failed |
| MNVLLGSVVIFATFVTLCNASCYFIPNEGVPGDSTRKCMDLKGNKHPINSEWQTDNCETCTCYETEISCCTLVSTPVGYDKDNCQRIFKKEDCKYIVVEKKDPKKTCSVSEWII | not failed |
| MNVNKPTTEKKLIDLNNDIIHNFDVSIVMSFYKRYTEFRKVLPHNAPYLQRNGIEVIIVLDDPDEKSELLMLLQNYPFINWKLIINERKHAPRNHASVLNVGLKHATKKYILQIDPEVEFLTDIIWQMRDAIEKYPMHYILAMMAYVPYEQELTENNIKELDFIPWGNLMVERNHLYKLHGYDETFITWGGEDNNMRARLDMSGIKKFILPEAKTIHREKNYDPNERSKRINKHSISDWRKMNYPSEAIANKDIWGSEFNKVIYDWQDNQYAKDLCYTYLQQFIGFEIRHPAAFRKRHKKIVLCQAYNEEKLIEGFLTNMANYFDGIILLDDESTDRTWDLAIHDKIILKVKKKRSGFNDLENRNILLDLSAFFQSEWFCFMDIDERFDERFTNFSEFENNKEIHVVSFRGVYLWNDEQSYKGDIPNSNKGILTVYRMFRPIGHTHINTHKKLHFIATPYFTNTWQSNILFKDYGSMKENDRIRKYERYIQEDQQKDMSSGYDYLLNSENLYQLDKIEEYLEHHHHHH | failed |
| MNVSTAELLSWVVKSSYLVAATLFLLGLQRMASPLSARSGIRWAGLGMLIATVATFFLPELHNVPLILAALAIGTGVAWWSAKKVAITDMPQMVALYNGMGGGSAAAIGAVELLRFSFFANRDTAHWSAQAVAELAARQPDTAMVVLAVIGSAIGAVSLSGSIIAWAKLDGRLDRRMTFPGQQAFNLAVAVAVLALAIWAAGSLQPLAIIAFFVVALALGVLMTLPIGGADMPVVISLYNAFTGLAVAFEGYVLGNEALIIAGMMVGAAGILLTRLMAKAMNRPISGVLFSNFGGGGQAQEISGVQKPIEAGDVAAMMAFAERVVIVPGYGMAVAQAQHKIWELAQRLMARGVKVKFAIHPVAGRMPGHMNVLLAEAGVPYDLIADMDDINPEFASTDVSLVIGANDVVNPVAKTDSASPIYGMPILDVVNSRNTVVIKRGKGTGFAGIENALFYADNTRMLYGDGAEAAGALVSELKALDGSGH | failed |
| MNVTGKLRGLISFSTVLPLKSEASIEDIASLTLHWPLVGALIGVAVGSAGVAASLVFPGAVVACVAYGFAIWFTGFHHLDGLIDMGDALMSHGSFERKIEIMRDPRIGTGGLGLLLIVSSTTIAAIYSLPQGVLFQGLLIGEVSAKVCLTGCARVSRPLDGGTGRHFIMASRSPFTGMVWIFWAVAAYLLAGVPGAVSVAVAVLSGVFIGLVARRNFYWSTGDVLGASNEVGRMMSLLGLLAAIRLTGL | failed |
| MNVVQVEYLNVAEIKALLNSTISKLNPRYTSNYMIVTAILTGARLSEIAGLTWNDINFNFNTININKSYDYFAKSFKPTKNKSSNRIIKINNTLCDVLKELRTNNTDLVFKNKRGLIPTSNAVNKALRARLEELNINRRNFHFHSLRHSHVAFLLSQGIDIYPIAQRLGHSDITTTTRTYAYLIEEYKDKNDAIIIAGLDKLEHHHHHH | failed |
| MNWIPLEQLLLKLHTPRAVSAAPAIDLGAVQEQALSLAAALQARGVRRLAVHLEDAVELAVALLGAWRAGASVLLPADLQAQTRQRWSSEVDLWLTDQDTPLHQLQASPLAPAELDPDTCQLSLCTSGSSGEPKRIEKNLRQLANEVVALEHLWGADLGQAWIIGSVATQHIYGLLFRVLWPLCAGRPFVRRQLPFPEDLQRASRECPAFAWVASPALLKRMGDNLDWPALSQVRRVFSSGGALPAEAASGLHQRLQQWPTEILGSSETGGIAWRQGPGLWQPFADVRLSQDADGALLIASPYLPAGHVEHTADAARIAADGRFELLGRLDRIVKLEEKRISLPMLEQALASHEWVAEARLGVIEDNRAYLGALLVLSEPGLHALRNQGRRHLTQALRQHLAGHCEALALPRRWRLVRQLPLNSQGKLPQAQVQALLLAPRPQAPEVLEQRQHEEEWQLQLAIPPDLAYFSGHFPQTPVLPGVVQVDWALALGQQLLELPGRFAGMEVLKFQQLVRPGDRIQLNLRFDAQRQKLYFAYLNDGAPCSCGRIVLEASCG | failed |
| MNYHWSDHPDPNKWADCVHCGMCLEACPTYELTGHEQQSPRGRVHLIKSVAEGKLEVNEAFADPVFTCLDCRACETACPADVEVGGLIEEARGQIRQALPLSGWKLEHHHHHH | failed |
| MNYRNKAFLKYEEDYFIERIIKALKDYEEIIIISNNPEEYKEFGLKVFKDIYPSQGPLSGIHSALNHIKNDYCLVVACDMPFINKDVVNYLGNIKEDYEILIPKFQERLQPLCAIYKKSCKDIMEKELINNSNKLIKTCFKFSMKVVEEFPFIEKVHKKEIKNFYNINTVDEYEDLIKKKEILEHHHHHH | failed |
| MNYSTLTSVLLCLLLGAPAWADHYQVVTEEWAPYNYEENGQLTGMTTEIVRAIMAVSGNDFNIVLAPSMRASHTLQMRPKTIMYSMFRTPEREVLYKWVGPIVEESVHPYQLATAAPVTSLEQLLHAPQITTRHAGLLPDMLQSLGFKNLDKSAAQSVQLYRMLLNGRTAIIIGDTDAGVAYQSRQLNIAPGTLRQIPIELYRSSLYIAFSRDCEDELVASWARALETLRQSGELERIQRRYEQLVGQ | failed |
| MPAAAYWLPASDETPLYTRHWPSATAVGAVMLSHGMAEHAGRYERLAAALNAAGYHFYAIDQRGHGRTAEADELGHFADQGGWGKVVGDLASLNHHIRQQHPELPIFLLGHSMGSYISMAYLLHHSCSLQGAILSGSNYQPQALYRIARLIARFERWRQGPLGKSALIDFLSFGSFNKAFKPNRTAFDWLSRDPQEVDRYVADPLCGFRCSNQLWVDLLGGLADITPPTHLRQIDADLPLLIIGGERDPVSQGKRLGDLADALRGAGLRQVTLKTYPEARHELFNESNRDAVTQDLIDWLEQALRHRRDHST | failed |
| MPAGLVISAPASGVGKTTLTLALARAWRNRGLSVQCFKSGPDYIDPAFHAAATGRASVNVDSWAMDRGGIAHLVGRGADADVVLAEGSMGLFDGVAARGVSGTGATADIAEMLGWPVLLVIDPSGQAQTAAAIAAGLRDYRPGVRLAGVVLNRVASPRHEDLVRRALDDAGIAVFGALPRHAEISLPKRHLGLVQAEEQAEIGKLIDEAARFVAEHVDLDAVLQSAAAWAPQPAANGLNVTPPGQRIALARDAAFSFVYPHMLEAWRAAGADISTFSPLADEAPDASADVCWLPGGYPELHAGKIAANARFCSGLRAFAETRPVHGECGGYMVLGTALTDADGVRHEMAGLLGLETSFAKRRMHLGYRLAELAAPMPGHSPGARLRGHEFHYSTIAAQPDMPLAVVHDATGAVIAETGSRRGNATGTFFHLIAEDRLEHHHHHH | not failed |
| MPAITRRALSAGLIAAVALSVLPFAAQAAEELKIGYQKTGLPVIARQQGVIEKALEAKGVKVSWVEFTAGPPLVEALNVGSINVGWTGDAPPIFGQAAGSAIVYVAALPSNGKGEAIFTKPESGIKSVADLKGKKVGVGKGTSAHNLLVAALEKNGLKLSDIDVTYLSPADAAAAFASDKIDAWAVWDPFYAIAETRYKPVTLARTSDVLDVKTYFLANRDYAKSHADTINTNVGALGEAAKWSAANRDKVAAALHEVTGVPLEAQTLAANRSEFGITRIDDKIVASQQETADRFYRLGLIPKQISIKDAVWSGATN | failed |
| MPAKPIDLGPLHFAKRGDAVAYLNDMLHRYDVGDRVGANDTVILRAALEHHPDAEAKKGCGITHFNVRTADFGTKCFWLNRTDGTTEKFSHRACIYGT | failed |
| MPALACVDTSFVPPAYAFSDTAGDVFIPASSPTSAAVVVDRWSPSLSSSLYRIDGWGAPYFIANSSGNISVRPHGSETLPHQDIDLLKIVKKVTGPKSSGGLGLQLPLIVRFPDVLKNRLECLQSAFDYAIKSQGYDSHYQGVYPVKCNQDRFVVEDIVKFGSSFRFGLEAGSKPEILLAMSCLCKGSPDAFLVCNGFKDAEYISLALLGRKLALNTVIVLEQEEELDLVIELSQKMNVRPVIGLRAKLRTKHSGHFGSTSGEKGKFGLTTTQIVRVVRKLRQSGMLDCLQLLHFHIGSQIPSTSLLSDGVAEAAQLYCELVRLGAHMKVIDIGGGLGIDYDGSKSGESDLSVAYSLEEYAEAVVASVRVVCDRSSVKHPVICSESGRAIVSHHSVLIFEAVSADKPMVHQATPGDIQFLLEGNEEARANYEDLYAAVMRGDHESCLLYVDQLKQRCVEGFKEGVLSIEQLASVDGLCEWVLKAIGASDPVHTYNINLSVFTSIPDLWGIDQLFPIVPIHKLDQRPGARGILSDLTCDSDGKINKFIGGESSLPLHELDKNGSGGRYFLGMFLGGAYEEALGGVHNLFGGPSVVRVSQSDGPHSFAVTRAVPGQSSADVLRAMQHEPELMFQTLKHRAEEMMHTKGGSEGENEEEEEDDEFNNVAASLDRSFHNMPYLATEQASPSNSLSAAISNLGFYYCDEDVYDYISA | failed |
| MPALITYRTTVQEDWVDYNGHLRDAFYLLIFSYATDALMDRIGLDADSRGQSGNSLFTLEAHINYLHEVKLGTEVWVQTQILGFDRKRLHVYHSLHRAGFDEVLAASEQMLLHVDLAGPQSAPFGHTTVCRLNHLVEQQEGAQAPQYMGRTIKLPA | not failed |
| MPANKKEGLIFGVMMCFGMVCVMSIYNAIINRAIYDFSLMTVFEMVIGFMIALLLDLLLVGPLAKKIAFRMPFDKTKKIYVILAMSTCMVIGMVLCMSVFGLVTAVLANGLNGDSLFSAYLMIVLKNFILAYPLQLLIMGPLVRGVFMKFVKPKLTAAI | failed |
| MPAPLSIVIPTLQAESSLPRLLEALIEGLPNGLIREVIVSDGGSQDATRAIAEAAGAQVLNGPPSRGGQLRHGCDAARGDWLLVLHADTLPDPGWAGVVADHIAAREDAACFRLAFRARGPGAAWVAGWANLRTRLFGLPYGDQGLLIRRRDYQTAGGYPDQLLMEDVHLVRALSRAPVLLPHRALTGAERYLRSGWLRRGARNLWTLMRYFAGTDPEALARAYRRLEHHHHHH | failed |
